The source of these data is patent US20240053349A1.

Square brackets hold non-standard residues; d marks the D form. Primed or numbered codes have the meaning given here. Side chains are listed from the residue outwards. Ends that are not written are not given here. * marks the point of attachment. DOTA = O=C(O)CN1CCN(CC(=O)O)CCN(CC(=O)*)CCN(CC(=O)O)CC1; Biotin = O=C1N[C@H]2[C@H](CS[C@H]2CCCCC(=O)*)N1; Butanoyl(4-(4-I-phenyl)) = O=C(CCCc1ccc(I)cc1)*; Butanoyl(4-(4-MePh)) = Cc1ccc(CCCC(=O)*)cc1; FB = fluorobenzaldehyde oxime; Folate = pteroic acid on Glu; PEG3′ = PEG3 spacer; PEG7′ = PEG7 spacer; AO = aminooxy

Experiment [1] deals with human plasma proteins. Put plainly: plasma protein binding, dialysis 4 h at 37 C, 2 µM, LC-MS/MS.
The target in experiment [2] is mouse plasma proteins (CD-1 mouse). The experiment is described as above.
For experiment [3], the target named is human plasma proteins. Put plainly: plasma protein binding; measured on the FB form.
The target of experiment [4] is mouse plasma proteins (CD-1 mouse). Put plainly: plasma protein binding; measured on the FB form.
Experiment [5] addresses FOLR1 human recombinant protein (human) (UniProt P15328). Briefly: ELISA on FOLR1.
The target is the same in experiment [6]. Put plainly: ELISA on FOLR1, linker screen. On the technique in general: An ELISA detects its analyte on a solid surface through an enzyme-linked reagent.

Sequence of FOLR1 human recombinant protein (human) (P15328 25-233 limits assumed): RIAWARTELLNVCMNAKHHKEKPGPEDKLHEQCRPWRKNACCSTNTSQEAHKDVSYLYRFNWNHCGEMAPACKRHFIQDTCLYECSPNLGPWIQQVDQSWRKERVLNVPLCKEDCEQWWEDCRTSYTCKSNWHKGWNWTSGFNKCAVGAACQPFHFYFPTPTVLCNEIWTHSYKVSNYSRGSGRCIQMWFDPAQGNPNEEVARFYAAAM

B1: Folate-hshta-Lys(MPBA)-Gly-Phe-Lys(DOTA) (compound #6305) (peptide)
peptide: [dH][dS][dH][dT][dA]K(Butanoyl(4-(4-MePh)))GFK(DOTA)-OH
modifications: triazole (positions not given here); not fully specified (N-terminus); also: triazole macrocycle via Pra and Az4, places not given here
For the molecule B1, the Plasma % Bound with human plasma proteins [1] amounted to 98.3%; in experiment [2], 96.3%.

B2: Folate-hshta-Lys(IPBA)-Gly-Phe-Lys(DOTA) (compound #1307) (peptide)
peptide: [dH][dS][dH][dT][dA]K(Butanoyl(4-(4-I-phenyl)))GFK(DOTA)
modifications: triazole (positions not given here); not fully specified (N-terminus); also: triazole macrocycle via Pra and Az4, places not given here
Regarding B2, the values for the Plasma % Bound (in the experiment with human plasma proteins [1]; in experiment [2]) were 99.5% and 99.6%, respectively.

B3: Folate-hshta-G-F-K(DOTA)-OH (Indi 7327, compound #7327) (peptide)
peptide: Folate-[dH][dS][dH][dT][dA]GFK(DOTA)-OH
modifications: not fully specified (bridges); printed as folate-hshta-Gly-Phe-Lys(DOTA); also: triazole macrocycle closed by Pra and Lys(N3)/Az4 flanking hshta, not in the given chain
On to B3, for which the Plasma % Bound with human plasma proteins [1] was 40.3%; in experiment [2] it was 40.9%.

B4: Fol-hshta-PEG3-Gly-Phe-Lys(DOTA) (compound #6307) (peptide)
peptide: folate-[dH][dS][dH][dT][dA][PEG3′]GFK(DOTA)
modifications: triazole (positions not given here); numbers in words are those of the source; also: triazole macrocycle via Pra and Az4, places not given here
Consider B4, for which the Plasma % Bound with human plasma proteins [1] is 41.3%; in experiment [2], 40.6%.

B5: Fol-hshta-PEG3-Lys(FB) (compound #2) (peptide)
peptide: folate-[dH][dS][dH][dT][dA][PEG3′]K([AO-FB])
modifications: triazole (positions not given here); numbers in words are those of the source; also: triazole macrocycle via Pra and Az4, places not given here
Turning to B5, the Plasma % Bound with human plasma proteins [3] was found to be 43%; in experiment [4], 20.2%; with human plasma proteins [1], 43%; in experiment [2] it was 20.2%.

B6: Fol-hshta-PEG3-Lys(DOTA) (compound #1189) (peptide)
peptide: folate-[dH][dS][dH][dT][dA][PEG3′]K(DOTA)-OH
modifications: triazole (positions not given here); not fully specified; printed as folate-hshta-PEG3-Lys(DOTA); numbers in words are those of the source; also: triazole macrocycle via Pra and Az4, places not given here
Regarding B6, the Plasma % Bound is 46% with human plasma proteins [1] and 29.5% in experiment [2].

B7: Folate-hshta-PEG3-Lys(MPBA)-Lys(DOTA) (compound #2809) (peptide)
peptide: [dH][dS][dH][dT][dA][PEG3′]K(Butanoyl(4-(4-MePh)))K(DOTA)-OH
modifications: triazole (positions not given here); not fully specified (N-terminus); printed as folate-hshta-PEG3-Lys(MPBA)-Lys(DOTA); numbers in words are those of the source; also: triazole macrocycle via Pra and Az4, places not given here
Take B7: the values for the Plasma % Bound (in the experiment with human plasma proteins [1]; in experiment [2]) were 83.3% and 92.1%, respectively.

B8: Fol-hshta-Gly-Phe-Lys(AO) (compound #3303) (peptide)
peptide: folate-[dH][dS][dH][dT][dA]GFK(AO)
modifications: triazole (positions not given here); not fully specified; printed as Fol-hshta-Gly-Phe-Lys(AO); also: triazole macrocycle via Pra and Az4, places not given here
In the case of B8, the Plasma % Bound with human plasma proteins [3] was 81%; in experiment [4] it was 75.5%.

B9: deryt (SEQ ID NO:20) PCC alone (peptide)
peptide: [dD][dE][dR][dY][dT]
modifications: triazole (positions not given here); also: flanked by Pra and Az4 joined by 1,2,3-triazole, sides not given here
Turning to B9, in experiment [5], the EC50 (commonly the midpoint of the concentration-response curve) is 10000 nM.

B10: folate-kyeet Tz heterobiligand (peptide)
peptide: Biotin-[dK][dY][dE][dE][dT]
modifications: triazole (positions not given here); also: folate joined via PEG linker and triazole (Tz), site not placed, triazole macrocycle via Pra and Az4 flanking kyeet, not placed in chain
Take B10: the EC50 in experiment [5] turned out to be 0.149 nM.

B11: Folate-hshta-Lys(IPBA)-M-V-Lys(DOTA) (compound #1306) (peptide)
peptide: folate-[dH][dS][dH][dT][dA]K(Butanoyl(4-(4-I-phenyl)))MVK(DOTA)-OH
modifications: triazole (positions not given here); not fully specified; also: triazole macrocycle via Pra and Az4, places not given here
As to B11, the Plasma % Bound was determined as 97.3% with human plasma proteins [1] and 97.1% in experiment [2].

B12: Folate-PEG7-hshta (peptide)
peptide: {folate-PEG7′}-[dH][dS][dH][dT][dA]
modifications: triazole (positions not given here); also: triazole macrocycle via Pra and Az4, places not given here, biotin label, site not given here
Regarding B12, in experiment [6], the EC50 stood at 1 nM.

B13: Folate-deryt heterobiligand (construct not specified) (peptide)
peptide: [dD][dE][dR][dY][dT]
modifications: triazole (positions not given here); also: triazole macrocycle via Pra and Az4, places not given here, folate conjugated, linker and site not given here
As to B13, in experiment [6], the EC50 came to 0.28 nM.

B14: folate-hshta Tz heterobiligand (peptide)
peptide: Biotin-[dH][dS][dH][dT][dA]
modifications: triazole (positions not given here); also: triazole macrocycle via Pra and Az4, places not given here, folate joined through PEG linker and triazole, site not given here
As to B14, the EC50 in experiment [5] came to 0.107 nM.

B15: Fol-hshta-Lys(4-MPBA)-Gly-Phe-Lys(PEG3-DOTA) (compound #3302) (peptide)
peptide: [dH][dS][dH][dT][dA]KGFK([PEG3′-DOTA])
modifications: triazole (positions not given here); not fully specified (residue 6, N-terminus); also: triazole macrocycle via Pra and Az4, places not given here
Consider B15, for which the results for the Plasma % Bound (in the experiment with human plasma proteins [1]; in experiment [2]) were 94.9% and 96.5%, respectively.
